Test results from patent publication US10947504B2, “Method for producing highly functional platelets” (Kyoto University, priority 2015, dated 2021).
Structures can show the parent of a compound that is named as a salt. Where two headings read alike, the source gives them in different places.

Experiments:
[1] = system: immortalized megakaryocytes; conditions: for synergistic effect on number and function of platelets produced, ROCK inhibitor combined with SR-1: in combination with SR-1, compared with each alone (FIG. 9)
Procedure: Immortalized megakaryocytes obtained according to the method described in section 1 were washed twice with PBS(−) followed by removing the doxycycline to terminate overexpression, static culturing after disseminating the cells in a 6-well plate at 2 mL/well and a seeding density of 1×10^5 cells/mL, and then shake culturing in an E125 flask at 25 mL/flask and a seeding density of 1×10^5 cells/m L.
The medium was obtained by adding the following components to IMDM serving as the basal medium (concentrations indicate final concentrations).
Culturing was implemented under conditions of 37° C., 5% CO2 and 20% O2. The numbers of platelets and PAC-1 positive cells were measured using the same method as described in the above-mentioned section 2.

[2] = system: immortalized megakaryocyte line (SeV2-MKCL)
Procedure: Culturing was implemented by disseminating the cells at 2 mL/well in a 6-well plate at a seeding concentration of 1×10^5 cells/mL followed by static culturing in the medium indicated below.
After simultaneously adding SR-1 at the concentrations shown in FIG. 1 and culturing for 7 days, the number and function of the platelets were measured. The measurement method was as shown below.
The culture supernatant was gently suspended using a 1 mL Pipetman 7 days after culturing to terminate gene expression. 200 μL of the culture broth were dispensed into a 5 mL sample tube followed by staining with the antibodies indicated below.
Measurement was carried out using FACS Verse manufactured by Becton Dickinson and Company 30 minutes after the reaction. 400 μL of Tyrode's buffer Ca^+ were added immediately before measurement to bring to a total volume of 600 μL. This total volume of 600 μL was used for the FACS measurement sample.
The number of particles positive for CD42a and CD42b were considered to represent the number of platelets, and the ratio of the mean fluorescence intensities (MFI) of PAC-1 and CD62p in this platelet fraction before and after stimulation was calculated.

[3] = system: immortalized megakaryocytes; test: shRNA knockdown in immortalized megakaryocytes during overexpression: number of CD41a-positive cells; assay type: cell-based, human; conditions: during overexpression of BMI1, c-MYC and BCL-xL (FIG. 17)
Text: Genes of shRUNX1 with GFP, shHMGA2 with GFP and SCRAMBLE with GFP were introduced into the immortalized megakaryocytes prepared in the above-mentioned section 1 using a viral vector. The cells introduced with the above genes (GFP-positive cells) were then sorted.

[4] = system: immortalized megakaryocytes; test: Electron microscopy of shRNA-introduced megakaryocytes cultured with SR-1 and Y27632; assay type: cell-based, human; conditions: DOX-free medium containing SR-1 and Y27632 (FIG. 21)
Procedure: Cells introduced with genes shRUNX1, shHMGA2 and shSCRAMBLE obtained in section 9 above were cultured in DOX-free megakaryocyte medium containing SR-1 and Y27632 and observed with an electron microscope.

[5] = system: immortalized megakaryocytes; test: shRNA knockdown: multinucleation and platelet production after terminating overexpression of cMYC, BMI1 and BCL-xL; assay type: cell-based, human
Procedure: Next, the production of platelets was measured after having terminated overexpression of cMYC, BMI1 and BCL-xL genes using the method described in the aforementioned section 1-5.

Cc1ccccc1N=Nc1ccc(NC(=O)c2ccnn2C)c(C)c1 [CH-223191, 2-methyl-2H-pyrazole-3-carboxylic acid (2-methyl-4-o-tolylazo-phenyl)-amide]
synergistic effect on number of platelets produced, AhR antagonist combined with Y27632 ([1]; in combination with Y27632 (FIG. 10)): prominent synergistic effects that exceeded that of SR-1

CC(C)n1cnc2c(NCCc3ccc(O)cc3)nc(-c3csc4ccccc34)nc21 [SR-1, 4-(2-(2-(benzo[b]thiophen-3-yl)-9-isopropyl-9H-purin-6-ylamino)ethyl)phenol]
duration of culturing after which highly functional platelets tend to be obtained ([2]; AhR antagonist added after terminating overexpression): 5 days | platelet function ([2]; compared with the absence of SR-1 (FIG. 1)): higher | number of platelets bound by PAC-1 and anti-CD62p antibody ([2]; static culturing 7 days, no feeder cells, addition of SR-1 (FIG. 1)): confirmed to increase

C[C@@H](N)c1ccc(C(=O)Nc2ccnc3[nH]ccc23)cc1 [Y39983]
synergistic effect on number and function of platelets produced, ROCK inhibitor combined with SR-1 [1]: prominent synergistic effect that exceeded that of Y27632

O=S(=O)(c1cccc2cnccc12)N1CCCNCC1 [fasudil hydrochloride]
synergistic effect on number and function of platelets produced, ROCK inhibitor combined with SR-1 ([1]; hydrochloride): concentration-dependent synergistic effects comparable to that of Y27632

C[C@H]1CNCCCN1S(=O)(=O)c1cccc2cncc(F)c12 [ripasudil]
synergistic effect on number and function of platelets produced, ROCK inhibitor combined with SR-1 [1]: concentration-dependent synergistic effects comparable to that of Y27632

B1: shRUNX1: shRNA against RUNX1, target sequence SEQ ID NO: 3, shRNA sequence SEQ ID NO: 4 (nucleic acid)
chain: GATCCCCACTTTCCAGTCGACTCTCATTCAAGAGATGAGAGTCGACTGGAAAGTTTTTTGGAAAA
number of CD41a-positive cells [3]: increase | cell morphology by electron microscopy [4]: numerous small nucleated cells | development of demarcation membrane systems (DMS) in the cells [4]: lacking | formation of secretory granules [4]: only be formed to a moderate degree

B2: shHMGA2: shRNA against HMGA2, target sequence SEQ ID NO: 5, shRNA sequence SEQ ID NO: 6, introduced with viral vector (nucleic acid)
chain: GATCCCCATGAGACGAAATGCTGATGTATTTCAAGAGAATACATCAGCATTTCGTCTCATTTTTTGGAAAA
number of CD41a-positive cells [3]: decrease | cell morphology by electron microscopy [4]: multinucleated and enlarged cells were observed | development of demarcation membrane systems (DMS) in the cells [4]: formation of a DMS and secretory granules was observed | formation of secretory granules [4]: formation of a DMS and secretory granules was observed | number of platelets produced per megakaryocyte ([5]; after terminating overexpression (bottom of FIG. 19)): increase dramatically | megakaryocyte multinucleation ([5]; after terminating overexpression (top of FIG. 19)): considerable promotion
